Patent publication US20260176653

Target: T1, Bcl-TEV IRES iADAR (tandem-dimer MCP, BAD peptide fused to the N-terminus of ADAR2-DD(E488Q & F697Y), TEV cut site, Bcl-xL, TagBFP)
T1 chain: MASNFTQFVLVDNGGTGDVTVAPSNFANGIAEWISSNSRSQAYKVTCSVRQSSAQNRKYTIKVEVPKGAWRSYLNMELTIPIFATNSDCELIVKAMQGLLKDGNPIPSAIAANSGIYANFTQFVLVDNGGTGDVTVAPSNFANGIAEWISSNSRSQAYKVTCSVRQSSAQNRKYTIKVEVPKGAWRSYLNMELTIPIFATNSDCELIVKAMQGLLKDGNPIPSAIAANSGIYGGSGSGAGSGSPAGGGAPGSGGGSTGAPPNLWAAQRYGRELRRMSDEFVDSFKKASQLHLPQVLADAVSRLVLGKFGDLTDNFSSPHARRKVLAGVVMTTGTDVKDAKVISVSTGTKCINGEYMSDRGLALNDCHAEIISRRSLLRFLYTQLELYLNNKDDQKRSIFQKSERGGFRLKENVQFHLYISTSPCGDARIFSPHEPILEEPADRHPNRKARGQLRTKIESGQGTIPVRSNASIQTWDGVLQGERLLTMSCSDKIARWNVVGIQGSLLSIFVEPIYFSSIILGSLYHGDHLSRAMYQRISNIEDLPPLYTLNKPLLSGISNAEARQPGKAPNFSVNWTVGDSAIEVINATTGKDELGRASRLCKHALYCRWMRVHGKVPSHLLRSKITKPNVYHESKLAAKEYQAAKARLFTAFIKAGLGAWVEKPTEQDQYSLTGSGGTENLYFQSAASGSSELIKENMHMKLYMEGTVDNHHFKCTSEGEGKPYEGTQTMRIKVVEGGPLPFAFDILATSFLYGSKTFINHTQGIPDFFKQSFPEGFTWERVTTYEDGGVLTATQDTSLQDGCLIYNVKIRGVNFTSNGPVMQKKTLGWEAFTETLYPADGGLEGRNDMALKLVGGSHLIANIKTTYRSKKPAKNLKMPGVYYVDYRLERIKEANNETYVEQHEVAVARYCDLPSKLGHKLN

B1: TEV Protease (protein)
chain: MGESLFKGPRDYNPISSTICHLTNESDGHTTSLYGIGFGPFIITNKHLFRRNNGTLLVQSLHGVFKVKNTTTLQQHLIDGRDMIIIRMPKDFPPFPQKLKFREPQREERICLVTTNFQTKSMSSMVSDTSCTFPSSDGIFWKHWIQTKDGQCGSPLVSTRDGFIVGIHSASNFTNTNNYFTSVPKNFMELLTNQEAQQWVSGWRLNADSVLWGGHKVFMVKPEEPFQPVKEATQL
fold change of the mean RFU (mNeonGreen-to-mCherry), Bcl-TEV IRES iADAR co-transfected with TEV protease: 17× for TEV protease
